Article PMC6692582
One block for each substance: values may come before it.

Legend:
[1] = molecular target: N-terminal NanoLuc-tagged VEGFR2 (wild type) (UniProt P35968); experiment: FRET or BRET; NanoBRET time course, intact HEK293T cells transiently transfected with wild-type or tyrosine phosphorylation-deficient NanoLuc-VEGFR2; 3 or 20 nM VEGF121a-TMR; every 30 s at 37°C
[2] = molecular target: tyrosine phosphorylation-deficient NanoLuc-VEGFR2 (UniProt P35968); experiment: as above
[3] = molecular target: N-terminal NanoLuc-tagged VEGFR2 (wild type) (UniProt P35968); experiment: FRET or BRET; NanoBRET kinetics, membranes from NanoLuc-VEGFR2 HEK293T cells (10 μg per well); five concentrations of fluorescent ligand (1–20 nM); every 30 s for 90 min at 37°C; KD kinetic (koff/kon)
[4] = molecular target: tyrosine phosphorylation-deficient NanoLuc-VEGFR2 (UniProt P35968); experiment: FRET or BRET; NanoBRET kinetics, membranes from a stable cell line expressing tyrosine phosphorylation-deficient NanoLuc-VEGFR2; four concentrations of VEGF121a-TMR (3–20 nM), 90 min at 37°C; KD kinetic (koff/kon)
[5] = molecular target: N-terminal NanoLuc-tagged VEGFR2 (wild type) (UniProt P35968); experiment: FRET or BRET; NanoBRET saturation binding, membranes from NanoLuc-VEGFR2 HEK293T cells (5 μg per well); increasing fluorescent ligand with or without 100 nM corresponding unlabelled ligand; 60 min, 37°C; HeBSS/0.1% BSA pH 7.4
[6] = molecular target: NanoLuc-VEGFR2 (Homo sapiens) (UniProt P35968); experiment: NanoBRET kinetics, intact cells; details: cited from earlier work
[7] = molecular target: N-terminal NanoLuc-tagged VEGFR2 (wild type) (UniProt P35968); experiment: FRET or BRET; NanoBRET kinetics, membranes from NanoLuc-VEGFR2 HEK293T cells (10 μg per well); five concentrations of fluorescent ligand (1–20 nM); every 30 s for 90 min at 37°C; KD kinetic (koff/kon); remark: listed apart in the source
[8] = molecular target: N-terminal NanoLuc-tagged VEGFR2 (wild type) (UniProt P35968); experiment: FRET or BRET; NanoBRET saturation binding, wild-type NanoLuc-VEGFR2 membranes (5 μg per well), HeBSS/0.1% BSA pH 6.0 (5.8–6.2); with or without 100 nM VEGF165b; 60 min, 37°C
[9] = molecular target: N-terminal NanoLuc-tagged VEGFR2 (wild type) (UniProt P35968); experiment: FRET or BRET; NanoBRET saturation binding, wild-type NanoLuc-VEGFR2 membranes (5 μg per well), HeBSS/0.1% BSA pH 7.4 (matched with pH 6.0); with or without 100 nM VEGF165b; 60 min, 37°C
[10] = molecular target: N-terminal NanoLuc-tagged VEGFR2 (wild type) (UniProt P35968); experiment: FRET or BRET; NanoBRET kinetics, NanoLuc-VEGFR2 membranes preincubated with 0.01% DMSO (30 min, 37°C); four concentrations of VEGF165b-TMR (3–20 nM), 90 min at 37°C; KD kinetic (koff/kon)
[11] = molecular target: N-terminal NanoLuc-tagged VEGFR2 (wild type) (UniProt P35968); experiment: FRET or BRET; NanoBRET kinetics, NanoLuc-VEGFR2 membranes preincubated with 1 μM cediranib (30 min, 37°C); four concentrations of VEGF165b-TMR (3–20 nM), 90 min at 37°C; KD kinetic (koff/kon)
[12] = molecular target: N-terminal NanoLuc-tagged VEGFR2 (wild type) (UniProt P35968); experiment: FRET or BRET; NanoBRET kinetics, wild-type NanoLuc-VEGFR2 membranes (10 μg per well), HeBSS/0.1% BSA pH 6.0 (5.8–6.2); four concentrations of VEGF165b-TMR (3–20 nM), 37°C; KD kinetic (koff/kon)
[13] = molecular target: N-terminal NanoLuc-tagged VEGFR2 (wild type) (UniProt P35968); experiment: FRET or BRET; NanoBRET kinetics, wild-type NanoLuc-VEGFR2 membranes (10 μg per well), HeBSS/0.1% BSA pH 7.4 (matched with pH 6.0); four concentrations of VEGF165b-TMR (3–20 nM), 37°C; KD kinetic (koff/kon)
[14] = molecular target: N-terminal NanoLuc-tagged VEGFR2 (wild type) (UniProt P35968); experiment: FRET or BRET; NanoBRET kinetics, intact HEK293T cells stably expressing NanoLuc-VEGFR2, pretreated with 0.01% DMSO (30 min, 37°C); four concentrations of VEGF165b-TMR (3–20 nM), every 30 s for 90 min at 37°C; constants from a global association fit to the initial 20 min; KD kinetic (koff/kon)
[15] = molecular target: N-terminal NanoLuc-tagged VEGFR2 (wild type) (UniProt P35968); experiment: FRET or BRET; NanoBRET kinetics, intact HEK293T cells stably expressing NanoLuc-VEGFR2, pretreated with 1 μM cediranib (30 min, 37°C); four concentrations of VEGF165b-TMR (3–20 nM), every 30 s for 90 min at 37°C; constants from a global association fit to the initial 20 min; KD kinetic (koff/kon)
[16] = molecular target: N-terminal NanoLuc-tagged VEGFR2 (wild type) (UniProt P35968); experiment: FRET or BRET; NanoBRET displacement, membranes from NanoLuc-VEGFR2 HEK293T cells (5 μg per well); five fixed concentrations of fluorescent ligand with increasing VEGF-Ax (0.03–30 nM); 60 min, 37°C; Ki by Cheng–Prusoff

Sequence of VEGF-Ax (P15692 whole entry): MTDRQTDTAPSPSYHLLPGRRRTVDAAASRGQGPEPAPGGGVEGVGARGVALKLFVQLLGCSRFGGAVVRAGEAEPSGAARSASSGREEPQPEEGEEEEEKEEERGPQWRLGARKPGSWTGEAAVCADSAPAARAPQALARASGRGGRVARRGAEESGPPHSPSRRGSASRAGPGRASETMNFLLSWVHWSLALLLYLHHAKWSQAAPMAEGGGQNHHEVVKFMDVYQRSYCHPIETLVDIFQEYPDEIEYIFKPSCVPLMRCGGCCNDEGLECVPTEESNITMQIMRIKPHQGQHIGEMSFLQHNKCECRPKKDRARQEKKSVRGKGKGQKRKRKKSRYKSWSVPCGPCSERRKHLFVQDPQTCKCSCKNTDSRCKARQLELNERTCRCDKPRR
Sequence of VEGF165a-TMR (P15692 whole entry): as above

Substance: VEGF121a-TMR (from UniProt P15692-9 1-147) (ligand)
AUC of the NanoBRET time course at 3 nM [1]: 2.61
AUC of the NanoBRET time course at 20 nM [1]: 7.28
AUC of the NanoBRET time course at 3 nM [2]: 3.54
AUC of the NanoBRET time course at 20 nM [2]: 9.79
Kd [3]: 3.85 nM
koff [3]: 0.000317 s⁻¹
kon [3]: 85500 M⁻¹ s⁻¹
residence time [3]: 52.6 min
Kd [4]: 6.85 nM
koff [4]: 0.000617 s⁻¹
kon [4]: 104000 M⁻¹ s⁻¹
residence time [4]: 27 min
Kd [5]: 2.58 nM

Substance: VEGF165a-TMR (from UniProt P15692)
Kd [6]: 6.64 nM

Substance: VEGF-Ax (ligand)
pKi (fluorescent probe VEGF121a-TMR) [16]: 10.3
pKi (fluorescent probe VEGF165a-TMR) [16]: 10.2
pKi (fluorescent probe VEGF165b-TMR) [16]: 9.96

Results, then the substance that gave them:

Kd [3]: 2.21 nM
Kd [7]: 2.4 nM
Kd [5]: 0.31 nM
Substance: VEGF165a-TMR (from UniProt P15692-4 1-191) (ligand)

Kd [8]: 4.43 nM
Kd [9]: 5.29 nM
Kd [10]: 9.68 nM
koff [10]: 0.000383 s⁻¹
kon [10]: 44800 M⁻¹ s⁻¹
residence time [10]: 43.5 min
Kd [11]: 8 nM
koff [11]: 0.00035 s⁻¹
kon [11]: 45700 M⁻¹ s⁻¹
residence time [11]: 47.6 min
Kd [12]: 13.3 nM
koff [12]: 0.000983 s⁻¹
kon [12]: 73200 M⁻¹ s⁻¹
residence time [12]: 17 min
Kd [3]: 9.21 nM
koff [3]: 0.000483 s⁻¹
kon [3]: 61500 M⁻¹ s⁻¹
residence time [3]: 34.5 min
Kd [13]: 10.2 nM
koff [13]: 0.000383 s⁻¹
kon [13]: 39000 M⁻¹ s⁻¹
residence time [13]: 43.5 min
Kd [5]: 5.55 nM
AUC of the NanoBRET time course at 5 nM [14]: 0.71
AUC of the NanoBRET time course at 20 nM [14]: 1.8
Kd [14]: 19.8 nM
koff [14]: 0.00135 s⁻¹
kon [14]: 71000 M⁻¹ s⁻¹
residence time [14]: 12.3 min
AUC of the NanoBRET time course at 5 nM [15]: 0.77
AUC of the NanoBRET time course at 20 nM [15]: 2.04
Kd [15]: 43.6 nM
koff [15]: 0.00152 s⁻¹
kon [15]: 43800 M⁻¹ s⁻¹
residence time [15]: 11 min
Substance: VEGF165b-TMR (from UniProt P15692-8 1-191) (ligand)
